Assay results reported in the supplement of paper PMC10065799, “High-throughput profiling of sequence recognition by tyrosine kinases and SH2 domains using bacterial peptide display” (eLife, 2023).

molecular target: Hck (UniProt P08631); assay: phosphorylation enrichment, bacterial display (enrichment ratio); higher = better substrate or ligand; peptides without Tyr show the background
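Further: 11-residue human phosphosite peptides and single-mutation variants displayed on the E. coli surface, counted by deep sequencing, each peptide's frequency after selection divided by its frequency in the unselected input library; frequency after pTyr selection over input frequency; kinase dosed for 20-30% of maximal phosphorylation in three min.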

Chain of Hck (P08631 whole entry, looked up): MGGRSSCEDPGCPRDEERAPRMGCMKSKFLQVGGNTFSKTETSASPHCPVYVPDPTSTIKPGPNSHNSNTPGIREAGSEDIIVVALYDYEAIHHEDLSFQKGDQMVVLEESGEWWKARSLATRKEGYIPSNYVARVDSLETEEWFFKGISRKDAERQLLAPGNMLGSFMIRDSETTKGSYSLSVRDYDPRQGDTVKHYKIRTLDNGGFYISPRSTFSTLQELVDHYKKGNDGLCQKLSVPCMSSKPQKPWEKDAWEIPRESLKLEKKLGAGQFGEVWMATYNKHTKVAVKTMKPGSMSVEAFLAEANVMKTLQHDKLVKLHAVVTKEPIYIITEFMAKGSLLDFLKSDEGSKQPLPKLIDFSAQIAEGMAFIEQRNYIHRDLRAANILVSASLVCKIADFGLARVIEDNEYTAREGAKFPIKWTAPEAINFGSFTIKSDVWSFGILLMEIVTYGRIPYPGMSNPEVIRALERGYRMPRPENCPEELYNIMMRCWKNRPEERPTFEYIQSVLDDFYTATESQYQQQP

Going from LDLPGYCPLRE [CCDC116_Y291] to CDDGKYVFVVT [RPS6KA3_Y488_Y483C_YF], the phosphorylation enrichment falls from 1.1 to 0.508.

Compared with RHFVFYFSFLL [PTEN_Y177_R173H_YF], ATATDYHTTSH [SLC4A1_Y46] is higher in phosphorylation enrichment: 0.391 for the first, 0.397 for the second.

Going from SMAKYYASEIA [ACADSB_Y373] to SSSAIYDNPDL [DCP1B_Y191_N195D], the phosphorylation enrichment rises from 0.473 to 5.17.

First: GARGRYIMGGP [TNK1_Y277_V278I]
Second: VNQSGYTLIRK [ATP6V0A2_Y688_R685Q]
The phosphorylation enrichment of the first is lower: 0.428 for the first, 0.476 for the second.

First: MPLDQYSPSFP [FGFR1_Y776]
Second: EDSEYYKAFEE [CASQ2_Y179]
The phosphorylation enrichment of the first is higher: 0.6 for the first, 0.508 for the second.

Going from PSQRRYVFFFS [PTEN_Y174_YF] to HFNLTYRILSF [MMP23B_Y95], the phosphorylation enrichment rises from 0.476 to 0.644.

Going from LEIETCRRLLD [KRT12_Y429_Y429C] to HYEDGYPGGSD [CTNND1_Y221], the phosphorylation enrichment falls from 0.759 to 0.629.

Compared with LLREWYLPDPF [SIX3_Y225_Q227P_YF], QEGPEYWDGNT [HLA-B_Y83_R86G] is higher in phosphorylation enrichment: 0.791 for the first, 0.833 for the second.

Going from DLAGRYYALKS [CKB_Y173] to PFRFIYMAVQH [PTPN11_Y515_Q510P_YF], the phosphorylation enrichment rises from 0.726 to 1.11.

First: KDAGDYKFKAK [LRIT3_Y326_C328Y_YF]
Second: RGGWAYVLHPT [TRMT61A_Y67_V66A]
The phosphorylation enrichment of the first is lower: 0.38 for the first, 0.509 for the second.

Compared with NFYEYYVDDPP [GCHFR_Y48], LNWIFYKDQTG [RS1_Y166_YF] is lower in phosphorylation enrichment: 2.65 for the first, 0.239 for the second.

Compared with SASQEYHIVKK [PDZD2_Y557], CRIELYRIVES [IGFBP1_Y181_V183I] is higher in phosphorylation enrichment: 0.513 for the first, 0.548 for the second.

Going from THQNSYQPGRK [CEFIP_Y210] to LVLIKYLPEWT [PSEN1_Y240_F237L], the phosphorylation enrichment rises from 0.375 to 0.569.

First: KALKQYRAGPS [DDX27_Y763]
Second: FASTGYGIAIQ [GRIN2B_Y762]
The phosphorylation enrichment of the first is lower: 0.454 for the first, 0.484 for the second.

First: CSSGGYEPRGR [FUS_Y239_R234C]
Second: RHPYFYAPELL [ALB_Y174]
The phosphorylation enrichment of the first is lower: 0.436 for the first, 0.474 for the second.

Going from LFEDRYLLGTS [ASS1_Y87_YF] to QTLTDYDIRFY [CSNK2A1_Y131], the phosphorylation enrichment falls from 1.12 to 0.526.

Work on SMEGLYSSTQD [CLIC5_Y111] yielded a phosphorylation enrichment of 4.12.

molecular target: Jak2 (UniProt O60674); assay: as above
Sequence (O60674 whole entry, looked up): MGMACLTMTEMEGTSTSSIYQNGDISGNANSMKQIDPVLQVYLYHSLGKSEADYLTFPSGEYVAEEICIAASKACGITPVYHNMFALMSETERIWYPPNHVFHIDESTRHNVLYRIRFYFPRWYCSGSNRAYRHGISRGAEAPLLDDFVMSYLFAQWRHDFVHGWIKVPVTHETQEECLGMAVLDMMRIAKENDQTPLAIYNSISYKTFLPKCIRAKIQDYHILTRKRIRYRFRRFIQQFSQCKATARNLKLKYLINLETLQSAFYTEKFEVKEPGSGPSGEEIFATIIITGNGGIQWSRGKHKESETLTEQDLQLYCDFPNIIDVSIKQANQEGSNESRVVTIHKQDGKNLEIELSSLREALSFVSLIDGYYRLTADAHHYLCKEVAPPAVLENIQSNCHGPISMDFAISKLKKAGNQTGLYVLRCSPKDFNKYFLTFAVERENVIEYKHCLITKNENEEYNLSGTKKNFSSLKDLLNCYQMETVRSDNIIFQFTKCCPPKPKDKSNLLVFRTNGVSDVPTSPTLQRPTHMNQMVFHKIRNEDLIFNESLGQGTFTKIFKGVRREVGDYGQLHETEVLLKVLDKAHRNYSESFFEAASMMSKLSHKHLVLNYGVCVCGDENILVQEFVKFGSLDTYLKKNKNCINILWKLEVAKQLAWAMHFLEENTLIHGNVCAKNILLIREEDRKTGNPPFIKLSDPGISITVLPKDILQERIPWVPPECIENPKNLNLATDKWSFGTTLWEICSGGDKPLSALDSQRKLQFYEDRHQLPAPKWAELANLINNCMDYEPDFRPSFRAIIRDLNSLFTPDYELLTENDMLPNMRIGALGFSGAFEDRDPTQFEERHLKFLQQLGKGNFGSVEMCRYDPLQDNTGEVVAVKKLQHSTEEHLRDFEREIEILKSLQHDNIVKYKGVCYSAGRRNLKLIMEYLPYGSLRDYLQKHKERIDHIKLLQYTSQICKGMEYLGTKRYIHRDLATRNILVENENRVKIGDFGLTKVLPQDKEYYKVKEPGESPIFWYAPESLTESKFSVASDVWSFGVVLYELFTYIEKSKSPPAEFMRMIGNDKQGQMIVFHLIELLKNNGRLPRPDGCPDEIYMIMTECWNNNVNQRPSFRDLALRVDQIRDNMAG

Going from LDLPGYCPLRE [CCDC116_Y291] to CDDGKYVFVVT [RPS6KA3_Y488_Y483C_YF], the phosphorylation enrichment falls from 1.64 to 1.11.

Going from RHFVFYFSFLL [PTEN_Y177_R173H_YF] to ATATDYHTTSH [SLC4A1_Y46], the phosphorylation enrichment falls from 0.607 to 0.387.

Compared with SMAKYYASEIA [ACADSB_Y373], SSSAIYDNPDL [DCP1B_Y191_N195D] is higher in phosphorylation enrichment: 0.599 for the first, 0.914 for the second.

Compared with GARGRYIMGGP [TNK1_Y277_V278I], VNQSGYTLIRK [ATP6V0A2_Y688_R685Q] is higher in phosphorylation enrichment: 0.531 for the first, 0.538 for the second.

First: MPLDQYSPSFP [FGFR1_Y776]
Second: EDSEYYKAFEE [CASQ2_Y179]
The phosphorylation enrichment of the first is lower: 0.917 for the first, 1.11 for the second.

Compared with PSQRRYVFFFS [PTEN_Y174_YF], HFNLTYRILSF [MMP23B_Y95] is higher in phosphorylation enrichment: 1.16 for the first, 1.8 for the second.

Going from LEIETCRRLLD [KRT12_Y429_Y429C] to HYEDGYPGGSD [CTNND1_Y221], the phosphorylation enrichment rises from 1.07 to 1.44.

First: LLREWYLPDPF [SIX3_Y225_Q227P_YF]
Second: QEGPEYWDGNT [HLA-B_Y83_R86G]
The phosphorylation enrichment of the first is lower: 1.4 for the first, 1.98 for the second.

First: DLAGRYYALKS [CKB_Y173]
Second: PFRFIYMAVQH [PTPN11_Y515_Q510P_YF]
The phosphorylation enrichment of the first is higher: 1.58 for the first, 1.18 for the second.

Going from KDAGDYKFKAK [LRIT3_Y326_C328Y_YF] to RGGWAYVLHPT [TRMT61A_Y67_V66A], the phosphorylation enrichment rises from 0.392 to 1.1.

Compared with NFYEYYVDDPP [GCHFR_Y48], LNWIFYKDQTG [RS1_Y166_YF] is higher in phosphorylation enrichment: 1.23 for the first, 1.29 for the second.

First: SASQEYHIVKK [PDZD2_Y557]
Second: CRIELYRIVES [IGFBP1_Y181_V183I]
The phosphorylation enrichment of the first is lower: 0.572 for the first, 1.28 for the second.

Going from THQNSYQPGRK [CEFIP_Y210] to LVLIKYLPEWT [PSEN1_Y240_F237L], the phosphorylation enrichment rises from 0.415 to 1.44.

First: KALKQYRAGPS [DDX27_Y763]
Second: FASTGYGIAIQ [GRIN2B_Y762]
The phosphorylation enrichment of the first is lower: 0.545 for the first, 0.605 for the second.

Compared with CSSGGYEPRGR [FUS_Y239_R234C], RHPYFYAPELL [ALB_Y174] is higher in phosphorylation enrichment: 0.594 for the first, 1.13 for the second.

Going from LFEDRYLLGTS [ASS1_Y87_YF] to QTLTDYDIRFY [CSNK2A1_Y131], the phosphorylation enrichment rises from 0.885 to 1.18.

Work on SMEGLYSSTQD [CLIC5_Y111] yielded a phosphorylation enrichment of 1.36.

molecular target: MERTK (UniProt Q12866); assay: as above
Sequence (Q12866 whole entry, looked up): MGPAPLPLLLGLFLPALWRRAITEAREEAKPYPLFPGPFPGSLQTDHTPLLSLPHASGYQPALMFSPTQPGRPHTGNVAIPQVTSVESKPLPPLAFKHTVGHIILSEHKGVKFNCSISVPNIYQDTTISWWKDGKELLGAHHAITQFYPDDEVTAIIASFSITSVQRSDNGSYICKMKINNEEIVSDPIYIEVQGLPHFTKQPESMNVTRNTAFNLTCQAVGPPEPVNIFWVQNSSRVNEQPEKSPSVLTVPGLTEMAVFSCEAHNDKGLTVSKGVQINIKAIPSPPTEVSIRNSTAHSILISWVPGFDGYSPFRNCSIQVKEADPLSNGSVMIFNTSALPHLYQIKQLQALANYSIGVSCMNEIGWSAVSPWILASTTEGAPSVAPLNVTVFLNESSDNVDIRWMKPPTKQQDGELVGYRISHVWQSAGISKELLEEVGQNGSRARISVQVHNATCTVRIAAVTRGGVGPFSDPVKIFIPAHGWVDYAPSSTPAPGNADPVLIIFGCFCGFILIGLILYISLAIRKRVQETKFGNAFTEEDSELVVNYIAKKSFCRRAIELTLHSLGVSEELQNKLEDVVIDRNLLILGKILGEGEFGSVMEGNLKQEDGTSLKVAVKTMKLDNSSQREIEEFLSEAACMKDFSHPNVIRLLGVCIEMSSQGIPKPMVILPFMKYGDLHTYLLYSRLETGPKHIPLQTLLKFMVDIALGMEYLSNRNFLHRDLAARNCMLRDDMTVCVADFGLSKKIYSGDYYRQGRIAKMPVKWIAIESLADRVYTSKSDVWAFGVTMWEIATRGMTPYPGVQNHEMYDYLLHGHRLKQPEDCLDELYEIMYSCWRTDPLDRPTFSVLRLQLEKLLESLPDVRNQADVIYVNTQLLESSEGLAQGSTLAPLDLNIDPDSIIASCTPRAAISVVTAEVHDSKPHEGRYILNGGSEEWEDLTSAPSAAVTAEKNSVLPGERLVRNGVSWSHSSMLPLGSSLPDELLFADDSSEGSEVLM

Compared with LDLPGYCPLRE [CCDC116_Y291], CDDGKYVFVVT [RPS6KA3_Y488_Y483C_YF] is lower in phosphorylation enrichment: 0.767 for the first, 0.437 for the second.

Compared with RHFVFYFSFLL [PTEN_Y177_R173H_YF], ATATDYHTTSH [SLC4A1_Y46] is higher in phosphorylation enrichment: 0.357 for the first, 0.438 for the second.

Compared with SMAKYYASEIA [ACADSB_Y373], SSSAIYDNPDL [DCP1B_Y191_N195D] is higher in phosphorylation enrichment: 0.46 for the first, 5.29 for the second.

Going from GARGRYIMGGP [TNK1_Y277_V278I] to VNQSGYTLIRK [ATP6V0A2_Y688_R685Q], the phosphorylation enrichment falls from 0.468 to 0.433.

First: MPLDQYSPSFP [FGFR1_Y776]
Second: EDSEYYKAFEE [CASQ2_Y179]
The phosphorylation enrichment of the first is higher: 0.595 for the first, 0.372 for the second.

First: PSQRRYVFFFS [PTEN_Y174_YF]
Second: HFNLTYRILSF [MMP23B_Y95]
The phosphorylation enrichment of the first is higher: 0.691 for the first, 0.481 for the second.

First: LEIETCRRLLD [KRT12_Y429_Y429C]
Second: HYEDGYPGGSD [CTNND1_Y221]
The phosphorylation enrichment of the first is lower: 0.411 for the first, 0.852 for the second.

Compared with LLREWYLPDPF [SIX3_Y225_Q227P_YF], QEGPEYWDGNT [HLA-B_Y83_R86G] is higher in phosphorylation enrichment: 0.583 for the first, 0.709 for the second.

First: DLAGRYYALKS [CKB_Y173]
Second: PFRFIYMAVQH [PTPN11_Y515_Q510P_YF]
The phosphorylation enrichment of the first is higher: 1.65 for the first, 0.527 for the second.

First: KDAGDYKFKAK [LRIT3_Y326_C328Y_YF]
Second: RGGWAYVLHPT [TRMT61A_Y67_V66A]
The phosphorylation enrichment of the first is lower: 0.443 for the first, 0.52 for the second.

First: NFYEYYVDDPP [GCHFR_Y48]
Second: LNWIFYKDQTG [RS1_Y166_YF]
The phosphorylation enrichment of the first is higher: 6.46 for the first, 0.468 for the second.

First: SASQEYHIVKK [PDZD2_Y557]
Second: CRIELYRIVES [IGFBP1_Y181_V183I]
The phosphorylation enrichment of the first is higher: 0.507 for the first, 0.451 for the second.

First: THQNSYQPGRK [CEFIP_Y210]
Second: LVLIKYLPEWT [PSEN1_Y240_F237L]
The phosphorylation enrichment of the first is lower: 0.34 for the first, 0.56 for the second.

Going from KALKQYRAGPS [DDX27_Y763] to FASTGYGIAIQ [GRIN2B_Y762], the phosphorylation enrichment rises from 0.391 to 0.408.

First: CSSGGYEPRGR [FUS_Y239_R234C]
Second: RHPYFYAPELL [ALB_Y174]
The phosphorylation enrichment of the first is lower: 0.396 for the first, 0.622 for the second.

Going from LFEDRYLLGTS [ASS1_Y87_YF] to QTLTDYDIRFY [CSNK2A1_Y131], the phosphorylation enrichment falls from 0.863 to 0.484.

With SMEGLYSSTQD [CLIC5_Y111] the phosphorylation enrichment was 2.43.

test system: c-Abl (mouse); assay: as above

First: LDLPGYCPLRE [CCDC116_Y291]
Second: CDDGKYVFVVT [RPS6KA3_Y488_Y483C_YF]
The phosphorylation enrichment of the first is higher: 1.28 for the first, 0.862 for the second.

First: RHFVFYFSFLL [PTEN_Y177_R173H_YF]
Second: ATATDYHTTSH [SLC4A1_Y46]
The phosphorylation enrichment of the first is higher: 0.703 for the first, 0.416 for the second.

Going from SMAKYYASEIA [ACADSB_Y373] to SSSAIYDNPDL [DCP1B_Y191_N195D], the phosphorylation enrichment rises from 0.682 to 9.33.

First: GARGRYIMGGP [TNK1_Y277_V278I]
Second: VNQSGYTLIRK [ATP6V0A2_Y688_R685Q]
The phosphorylation enrichment of the first is higher: 0.512 for the first, 0.391 for the second.

First: MPLDQYSPSFP [FGFR1_Y776]
Second: EDSEYYKAFEE [CASQ2_Y179]
The phosphorylation enrichment of the first is lower: 0.706 for the first, 0.793 for the second.

Going from PSQRRYVFFFS [PTEN_Y174_YF] to HFNLTYRILSF [MMP23B_Y95], the phosphorylation enrichment rises from 1.27 to 1.47.

Going from LEIETCRRLLD [KRT12_Y429_Y429C] to HYEDGYPGGSD [CTNND1_Y221], the phosphorylation enrichment rises from 1.01 to 1.12.

First: LLREWYLPDPF [SIX3_Y225_Q227P_YF]
Second: QEGPEYWDGNT [HLA-B_Y83_R86G]
The phosphorylation enrichment of the first is higher: 1.13 for the first, 1.08 for the second.

Compared with DLAGRYYALKS [CKB_Y173], PFRFIYMAVQH [PTPN11_Y515_Q510P_YF] is higher in phosphorylation enrichment: 0.577 for the first, 1.27 for the second.

Going from KDAGDYKFKAK [LRIT3_Y326_C328Y_YF] to RGGWAYVLHPT [TRMT61A_Y67_V66A], the phosphorylation enrichment rises from 0.338 to 0.93.

First: NFYEYYVDDPP [GCHFR_Y48]
Second: LNWIFYKDQTG [RS1_Y166_YF]
The phosphorylation enrichment of the first is higher: 0.877 for the first, 0.843 for the second.

First: SASQEYHIVKK [PDZD2_Y557]
Second: CRIELYRIVES [IGFBP1_Y181_V183I]
The phosphorylation enrichment of the first is lower: 0.697 for the first, 0.991 for the second.

First: THQNSYQPGRK [CEFIP_Y210]
Second: LVLIKYLPEWT [PSEN1_Y240_F237L]
The phosphorylation enrichment of the first is lower: 0.422 for the first, 1.07 for the second.

Going from KALKQYRAGPS [DDX27_Y763] to FASTGYGIAIQ [GRIN2B_Y762], the phosphorylation enrichment rises from 0.531 to 0.739.

First: CSSGGYEPRGR [FUS_Y239_R234C]
Second: RHPYFYAPELL [ALB_Y174]
The phosphorylation enrichment of the first is lower: 0.528 for the first, 0.694 for the second.

Compared with LFEDRYLLGTS [ASS1_Y87_YF], QTLTDYDIRFY [CSNK2A1_Y131] is higher in phosphorylation enrichment: 0.41 for the first, 0.913 for the second.

SMEGLYSSTQD [CLIC5_Y111] was tested, and the phosphorylation enrichment was 1.03.
